# The Human Domainome abundance scans (Beltran et al. 2025)
# ± gives the uncertainty stated by the source.
# Assay: abundance fitness (aPCA) (normalised: wild type 0, dead -1); higher = more abundant; growth selection in yeast, the domain comes from the species named
# Details: Homo sapiens
row,Substance,abundance fitness
1,"SAFB-like transcription modulator I49M, Q9NWH9",0.03 ± 0.057
2,"BAG family molecular chaperone regulator 3 W36E, O95817",1.43 ± 0.23
3,"BAG family molecular chaperone regulator 3 Q33P, O95817",-0.591 ± 0.3
4,"BAG family molecular chaperone regulator 3 P37M, O95817",0.465 ± 0.12
5,"SAFB-like transcription modulator L68H, Q9NWH9",0.053 ± 0.29
6,"SAFB-like transcription modulator I22F, Q9NWH9",-0.372 ± 0.087
7,"BAG family molecular chaperone regulator 3 G17R, O95817",0.791 ± 0.06
8,"SAFB-like transcription modulator E58P, Q9NWH9",-0.867 ± 0.12
9,"BAG family molecular chaperone regulator 3 T34Q, O95817",-0.148 ± 0.1
10,"SAFB-like transcription modulator N65C, Q9NWH9",-0.126 ± 0.074
11,"SAFB-like transcription modulator I66G, Q9NWH9",-0.517 ± 0.085
12,"SAFB-like transcription modulator E59F, Q9NWH9",-0.924 ± 0.07
13,"BAG family molecular chaperone regulator 3 V12A, O95817",-0.03 ± 0.12
14,"SAFB-like transcription modulator D24K, Q9NWH9",-0.157 ± 0.034
15,"SAFB-like transcription modulator L52R, Q9NWH9",-0.808 ± 0.057
16,"SAFB-like transcription modulator K20S, Q9NWH9",-0.244 ± 0.036
17,"SAFB-like transcription modulator K35Q, Q9NWH9",0.052 ± 0.053
18,"SAFB-like transcription modulator V44R, Q9NWH9",-0.054 ± 0.034
19,"SAFB-like transcription modulator K20F, Q9NWH9",-0.366 ± 0.16
20,"BAG family molecular chaperone regulator 3 G58E, O95817",-0.045 ± 0.18
21,"SAFB-like transcription modulator S50R, Q9NWH9",-0.037 ± 0.062
22,"BAG family molecular chaperone regulator 3 H42K, O95817",-0.942 ± 0.42
23,"SAFB-like transcription modulator K53Y, Q9NWH9",-0.517 ± 0.18
24,"SAFB-like transcription modulator K31E, Q9NWH9",-0.219 ± 0.062
25,"BAG family molecular chaperone regulator 3 N16D, O95817",0.008 ± 0.07

row,Substance,abundance fitness
1,"BAG family molecular chaperone regulator 3 W49N, O95817",-0.204 ± 0.34
2,"SAFB-like transcription modulator T23S, Q9NWH9",-0.021 ± 0.032
3,"BAG family molecular chaperone regulator 3 P24Q, O95817",-0.21 ± 0.14
4,"SAFB-like transcription modulator R37E, Q9NWH9",-0.694 ± 0.036
5,"SAFB-like transcription modulator Q54C, Q9NWH9",-0.209 ± 0.087
6,"BAG family molecular chaperone regulator 3 P32S, O95817",-0.054 ± 0.087
7,"BAG family molecular chaperone regulator 3 G17H, O95817",1.03 ± 0.1
8,"BAG family molecular chaperone regulator 3 K29N, O95817",-0.75 ± 0.43
9,"SAFB-like transcription modulator D62P, Q9NWH9",-0.474 ± 0.076
10,"SAFB-like transcription modulator L25M, Q9NWH9",-0.768 ± 0.045
11,"SAFB-like transcription modulator G61L, Q9NWH9",-0.098 ± 0.043
12,"BAG family molecular chaperone regulator 3 N50F, O95817",0.181 ± 0.11
13,"BAG family molecular chaperone regulator 3 S14H, O95817",0.623 ± 0.12
14,"SAFB-like transcription modulator K21Y, Q9NWH9",-0.667 ± 0.076
15,"BAG family molecular chaperone regulator 3 G35M, O95817",-0.158 ± 0.16
16,"BAG family molecular chaperone regulator 3 K29E, O95817",-0.791 ± 0.42
17,"BAG family molecular chaperone regulator 3 S44C, O95817",-0.688 ± 0.31
18,"BAG family molecular chaperone regulator 3 F38T, O95817",-0.622 ± 0.29
19,"SAFB-like transcription modulator V44C, Q9NWH9",0.036 ± 0.076
20,"BAG family molecular chaperone regulator 3 P21C, O95817",0.548 ± 0.1
21,"BAG family molecular chaperone regulator 3 P55I, O95817",0.135 ± 0.16
22,"SAFB-like transcription modulator I22W, Q9NWH9",-0.94 ± 0.085
23,"SAFB-like transcription modulator G61H, Q9NWH9",-0.16 ± 0.049
24,"SAFB-like transcription modulator E57I, Q9NWH9",0.048 ± 0.39
25,"SAFB-like transcription modulator K21N, Q9NWH9",-0.491 ± 0.094

row,Substance,abundance fitness
1,"SAFB-like transcription modulator I41W, Q9NWH9",-0.195 ± 0.092
2,"SAFB-like transcription modulator E33F, Q9NWH9",-0.645 ± 0.049
3,"BAG family molecular chaperone regulator 3 P32V, O95817",-0.268 ± 0.13
4,"SAFB-like transcription modulator D24A, Q9NWH9",-0.217 ± 0.033
5,"SAFB-like transcription modulator S50K, Q9NWH9",-0.111 ± 0.083
6,"SAFB-like transcription modulator Q54Y, Q9NWH9",-0.497 ± 0.27
7,"BAG family molecular chaperone regulator 3 T34K, O95817",0.244 ± 0.23
8,"SAFB-like transcription modulator I66S, Q9NWH9",-0.259 ± 0.083
9,"SAFB-like transcription modulator Q54L, Q9NWH9",0 ± 0.072
10,"SAFB-like transcription modulator Q54N, Q9NWH9",-0.037 ± 0.24
11,"BAG family molecular chaperone regulator 3 E57F, O95817",-0.052 ± 0.28
12,"SAFB-like transcription modulator L52S, Q9NWH9",-0.563 ± 0.087
13,"SAFB-like transcription modulator S50E, Q9NWH9",0.087 ± 0.075
14,"SAFB-like transcription modulator E58D, Q9NWH9",-0.444 ± 0.15
15,"SAFB-like transcription modulator I41M, Q9NWH9",0.08 ± 0.075
16,"SAFB-like transcription modulator I56G, Q9NWH9",-0.916 ± 0.072
17,"BAG family molecular chaperone regulator 3 R45N, O95817",0.54 ± 0.18
18,"SAFB-like transcription modulator L48I, Q9NWH9",-0.513 ± 0.063
19,"BAG family molecular chaperone regulator 3 D18P, O95817",0.065 ± 0.092
20,"BAG family molecular chaperone regulator 3 S56Y, O95817",0.376 ± 0.3
21,"SAFB-like transcription modulator G61F, Q9NWH9",-0.474 ± 0.072
22,"BAG family molecular chaperone regulator 3 R45T, O95817",-0.409 ± 0.28
23,"BAG family molecular chaperone regulator 3 W26H, O95817",-0.362 ± 0.069
24,"SAFB-like transcription modulator E67T, Q9NWH9",-0.099 ± 0.049
25,"SAFB-like transcription modulator D24Y, Q9NWH9",-0.433 ± 0.034

row,Substance,abundance fitness
1,"SAFB-like transcription modulator L52N, Q9NWH9",-0.385 ± 0.23
2,"SAFB-like transcription modulator D64N, Q9NWH9",0.035 ± 0.037
3,"BAG family molecular chaperone regulator 3 G58W, O95817",-0.682 ± 0.29
4,"BAG family molecular chaperone regulator 3 R45W, O95817",-0.843 ± 0.18
5,"SAFB-like transcription modulator D29W, Q9NWH9",-0.882 ± 0.18
6,"BAG family molecular chaperone regulator 3 D41C, O95817",-0.641 ± 0.42
7,"SAFB-like transcription modulator T46D, Q9NWH9",-0.235 ± 0.088
8,"SAFB-like transcription modulator R51K, Q9NWH9",-0.2 ± 0.065
9,"BAG family molecular chaperone regulator 3 W26M, O95817",-0.721 ± 0.2
10,"BAG family molecular chaperone regulator 3 N50M, O95817",-0.255 ± 0.086
11,"BAG family molecular chaperone regulator 3 N16Y, O95817",0.117 ± 0.1
12,"BAG family molecular chaperone regulator 3 R19P, O95817",-0.253 ± 0.23
13,"BAG family molecular chaperone regulator 3 V54Q, O95817",-0.084 ± 0.23
14,"BAG family molecular chaperone regulator 3 E27P, O95817",-0.836 ± 0.39
15,"BAG family molecular chaperone regulator 3 P37I, O95817",0.485 ± 0.08
16,"BAG family molecular chaperone regulator 3 D41A, O95817",-0.82 ± 0.23
17,"BAG family molecular chaperone regulator 3 P37L, O95817",0.128 ± 0.067
18,"SAFB-like transcription modulator V27R, Q9NWH9",-0.241 ± 0.07
19,"SAFB-like transcription modulator R37K, Q9NWH9",-0.283 ± 0.098
20,"SAFB-like transcription modulator T46N, Q9NWH9",0.103 ± 0.093
21,"SAFB-like transcription modulator G61M, Q9NWH9",-0.135 ± 0.06
22,"BAG family molecular chaperone regulator 3 F38N, O95817",-0.724 ± 0.46
